Like-named read-outs stand apart in the source and are kept apart here. Each block holds one binder with its values, some of them ahead of it.
Key:
Assay in all cases: SPR
anti-IL-17A-sST2 [1] = molecular target: T1, anti-IL-17A-sST2 (mouse, UniProt P14719 27-332)
mouse IL-33 = molecular target: T2, mouse IL-33 (mouse, UniProt Q8BVZ5 1-266)
T2 chain: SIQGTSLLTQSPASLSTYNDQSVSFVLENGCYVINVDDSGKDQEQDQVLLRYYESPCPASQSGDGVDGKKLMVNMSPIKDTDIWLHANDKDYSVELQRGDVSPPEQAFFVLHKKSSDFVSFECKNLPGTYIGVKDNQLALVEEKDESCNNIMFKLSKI

anti-IL-17A = molecular target: anti-IL-17A
anti-IL-17A-sST2 [2] = molecular target: T1, anti-IL-17A-sST2; remark: listed apart in the source

koff (anti-IL-17A-sST2 [1]): 0.000143 s⁻¹
B1: mouse IL-33 (ligand)
chain: MRPRMKYSNSKISPAKFSSTAGEALVPPCKIRRSQQKTKEFCHVYCMRLRSGLTIRKETSYFRKEPTKRYSLKSGTKHEENFSAYPRDSRKRSLLGSIQAFAASVDTLSIQGTSLLTQSPASLSTYNDQSVSFVLENGCYVINVDDSGKDQEQDQVLLRYYESPCPASQSGDGVDGKKLMVNMSPIKDTDIWLHANDKDYSVELQRGDVSPPEQAFFVLHKKSSDFVSFECKNLPGTYIGVKDNQLALVEEKDESCNNIMFKLSKI

koff (mouse IL-33): 0.000199 s⁻¹
B2: sST2-Fc (Fc fusion)
chain: SKSSWGLENEALIVRCPQRGRSTYPVEWYYSDTNESIPTQKRNRIFVSRDRLKFLPARVEDSGIYACVIRSPNLNKTGYLNVTIHKKPPSCNIPDYLMYSTVRGSDKNFKITCPTIDLYNWTAPVQWFKNCKALQEPRFRAHRSYLFIDNVTHDDEGDYTCQFTHAENGTNYIVTATRSFTVEEKGFSMFPVITNPPYNHTMEVEIGKPASIACSACFGKGSHFLADVLWQINKTVVGNFGEARIQEEEGRNESSSNDMDCLTSVLRITGVTEKDLSLEYDCLALNLHGMIRHTIRLRRKQPIDHR

Kd (anti-IL-17A): 0.0265 nM | koff (anti-IL-17A): 1.57e-05 s⁻¹ | Kd (anti-IL-17A-sST2 [2]): 0.0457 nM | koff (anti-IL-17A-sST2 [2]): 2.17e-05 s⁻¹
B3: mouse IL-17A (protein)
chain: AAIIPQSSACPNTEAKDFLQNVKVNLKVFNSLGAKVSSRRPSDYLNRSTSPWTLHRNEDPDRYPSVIWEAQCRHQRCVNAEGKLDHHMNSVLIQQEILVLKREPESCPFTFRVEKMLVGVGCTCVASIVRQAA

— article PMC11117730 (2024)
